Reference: PMC4073494 (Nature communications, 2014)

Molecular target: purified full-length EED (AlphaScreen) (UniProt O75530 1-441)
Assay: AlphaScreen or HTRF

Chain of purified full-length EED (AlphaScreen) (O75530 whole entry): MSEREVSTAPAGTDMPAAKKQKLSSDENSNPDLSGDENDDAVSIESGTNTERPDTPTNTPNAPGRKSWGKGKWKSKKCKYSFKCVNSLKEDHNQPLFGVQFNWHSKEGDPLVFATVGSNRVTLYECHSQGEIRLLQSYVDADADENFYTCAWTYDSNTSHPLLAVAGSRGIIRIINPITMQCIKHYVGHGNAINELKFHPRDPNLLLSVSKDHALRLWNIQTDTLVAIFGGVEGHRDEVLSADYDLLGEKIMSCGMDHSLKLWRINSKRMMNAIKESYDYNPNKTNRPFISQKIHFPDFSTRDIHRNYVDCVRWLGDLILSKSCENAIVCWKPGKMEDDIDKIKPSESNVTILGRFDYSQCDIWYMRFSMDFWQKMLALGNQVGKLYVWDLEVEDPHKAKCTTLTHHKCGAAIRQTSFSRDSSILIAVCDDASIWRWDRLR

B1: unlabeled full-length EZH2 (AlphaScreen) (natural protein)
chain: not shown
B1 was tested, and the EC50 was 148 nM.
